What was measured:
[1] = biological target: GH67 α-glucuronidase Agu67A from Caldicellulosiruptor lactoaceticus 6A (Caldicellulosiruptor lactoaceticus 6A); assay: SEC; Superdex 200 column (33 mL elution volume), 50 mM sodium citrate, 150 mM NaCl, pH 6.0, 0.5 mL/min; apparent Mw from a calibration curve of log (Mw) vs. elution volume; self-association (homodimer)
[2] = biological target: GH family 10 endo-β-1,4-xylanase Xyn10A from Caldicellulosiruptor lactoaceticus 6A (Caldicellulosiruptor lactoaceticus 6A); assay: as above

Substance | stoichiometry N [1] | stoichiometry N [2]
GH67 α-glucuronidase Agu67A from Caldicellulosiruptor lactoaceticus 6A (enzyme) | 2 | –
GH family 10 endo-β-1,4-xylanase Xyn10A from Caldicellulosiruptor lactoaceticus 6A (enzyme) | – | 2

— article PMC4153629
